Consider 20 molecules from patent US20150086555A1 (THERACLONE SCIENCES, published 2015).

The labels stand for the following.
B1: TCN-545 (5082_I15) (antibody, V domains shown)
VH: QVQLQQWGAGLLKPSETLSLSCAVFGGSFSDYYWTWIRQPPGKGLEWIGEIKHSGRTNYNPSLESRVTISVDTSKNQFSLKLSSVTAADTAIYYCARGTDPDTEGYCRSGSCSAFDFWGQGTLVTVSS
VL: EIVLTQSPGTLSLSPGERATLSCRASHFVNYRSLAWYQQTPGQVPRLLIYGASTRATGIPDRFSGSGSGTDFTLTISRLEPEDFAVYFCQQYGGSPRYTFGQGTRLEIK
B2: TCN-544 (5082_A19) (antibody, V domains shown)
VH: QVQLQESGPGLVKPSETLSLTCTVSRGSIGHYFWSWIRQPPGKGLEWIGYISYSGSTKYNPSLRSRVTISVDTSKNQFSLNLNSVTATDTALYYCAREDYDILTGAGPGMEVWGQGTTVTVSS
VL: QSMLTQPPSASGTPGQRVTISCSGSSSNIGSNTVNWFKHLPGTAPKLLIYRNDLRPSGVPDRFSGSKSGTSASLAISGLQSEDEADYYCATWDDSLNGFYVFGTGTKVTVL
B3: TCN-542 (5079_A16) (antibody, V domains shown)
VH: QVQLQESGPGLVKPSQTLSLTCTVSGGSISSGNYYWNWVRQHPGKGLEWIGYIYYRGSTFYNPSLKSRVTISIDTSKNQFSLRLSSVTAADTAVYYCAKDTRSSLDNYQYGMDVWGQGTTVTVSS
VL: QTVVTQEPSLTVSPGGTVTLTCASSTGAVTSSYFPNWFQQKPGQAPRPLIYSTTIRHSWTPARFSGSLLGGKAALTLSGVQPEDEADYYCLLYSGGDPVAFGGGTKLTVL
B4: TCN-555 (5246_L16) (antibody, V domains shown)
VH: QVQLVQSGAEVKRPGSSVKVSCTASGGIFRKNAISWVRQAPGQGLEWMGGIIAVFNTANYAQKFQNRVKITADESGNTAYMELSSLTSDDTAVYYCASHPKYFYGSGSYPDFWGQGTLVTVSS
VL: QSALTQPRSVSGSPGQSITISCTGGSSDIGASNSVSWYQQHPGKAPKLVIFDVTERPSGVPHRFSGSKSGNTASLTVSGLQPDDEADYFCCAYGGKYLVVFGGGTKVTVL
B5: TCN-563 (5237_B21) (antibody, V domains shown)
VH: QVQLAQSGAEVKRPGSSVKVSCTASGGIFRKNAISWVRQAPGQGLEWMGGIIAVFNTANYAQKFQGRVKITADESGNTAYMELSSLRSDDTAVYYCASHPKYFYGSGSYPDFWGQGTLVTVSS
VL: QSALTQPRSVSGSPGQSVTISCTGSSSDVGASNSVSWYQQHPGKAPKLVIYDVTERPSGVPHRFSGSKSGNTASLTVSGLQPEDEADYFCCAYGGKYLVVFGGGTKVTVL
B6: TCN-540 (5060_F05) (antibody, V domains shown)
VH: QVQLVQSGGGVVQPGRSLRLSCAASGFTFSSYAMHWVRQAPGKGLEWVAIISYDGNDQYYTDSVKGRFTISRDSSKVYLQMHRLRPEDTAVYYCAKEFETSGYFHGSFDYWGQGILVTVSS
VL: QSALTQPASVSGSPGQSITISCTGTSSDVGGYNYVSWYQQHPGKAPKLLIYEVTNWPSGVSNRFSGSKSGNTASLTISGLQAEDEADYYCSSYAGSSTWVFGGGTRVTVL
B7: TCN-527 (5086_C06) (antibody, V domains shown)
VH: QVQLQESGPGLVKPSETLSLNCAVSGGSISNYYWSWIRQPPGKGLEWIGYISYNGRPKYNPSLTSRVTISVDTSKDQFSLELRSVTAADTALYYCARETRFGELLSPYDAFEIWGQGTMVTVSS
VL: DIQMTQSPSSLSASVGDRVTMTCRASQNIRSYLNWYQQRPGTAPKLLIYAASTLHSGVPSRFSGGGSGTDFTLTINNLQPEDFASYYCQQSYDNPQTFGQGTKVEIK
B8: TCN-528 (5087_P17) (antibody, V domains shown)
VH: QVQLVQSGSEVKKPGASVKVSCKASGYTFTNYDINWIRQAPGQGLEWMGWINPNSGTTGSAQRFQGRVTITVDTSITTVYMELSSLRSDDTAIYYCARGRELLRLQHFLTDSQSERRDCFDPWGQGTLVTVSS
VL: DIQMTQSPSSLSASVGDRVTITCRANQDIGIYLNWYQQNPGKVPKLLLHGASSLQGGVPSRFSASGSGTDFTLTIHSLQPEDLATYYCQQSRRLPYTFGQGTRVELK
B9: TCN-521 (3280_D18) (antibody, V domains shown)
VH: EVQLVQSGGGLVQPGGSLRLACVVSGFTVTSNYITWVRQAPGKGLEWVSVIYSHGRAYYSASVNGRFTISRHTSKNTVYLEMNSLRPEDTAVYYCAGGGLVGGYDEYFFDYWGQGTLATVSS
VL: ETVLTQSPGTLSLTPGERATLSCRVGQSVSGSHLAWYQQKPGQAPRLLIYGASSRATGIPDRFGGSVSGTDFTLTISRLEPEDSAVYYCQQYGDSRYTFGQGTKLEIK
B10: TCN-534 (5249_B02) (antibody, V domains shown)
VH: QVQLVQSGAEVKKPGSSVKVSCRESGGTFNGYTITWVRQAPGQGLEWMGGIIPMMGTVNYAQKLQGRVTITTDYFTKTAYMDLNNLRSEDTAMYYCVKIRYTGQQLLWGQGTLVTVSS
VL: DIQMTQSPSTLSASIGDRVTITCRASQSIASWLAWYQQKPGKAPKLLIYEAVNLESGVPSRFSGSGSGTDFTLTISSLQPDDFATYFCQHYGTISQTFGGGTKVEIK
B11: TCN-564 (5256_A17b) (antibody, V domains shown)
VH: QVQLVQSGADVKKPGSSVTVSCKASGGSFSNYGINWVRQAPGQGLEWMGGIIPLINAPNYAPKFQGRVTITADMFSNIVSLQLTSLRTDDTAVYYCARRKMTTAIDYWGQGTLVTVSS
VL: QPVLSQPPSASASLGASVTLTCTLSSGFDNYQVAWYQQRPGKGPRFVMRVGNGGNVASKGDGIPDRFSVSGSGLNRYLTIKNIQEDDESDYYCGADHGSGNNFVSPYVFGGGTKLTVL
B12: TCN-533 (5256_A17a) (antibody, V domains shown)
VH: QVQLVQSGADVKKPGSSVTVSCKASGGSFSNYGINWVRQAPGQGLEWMGGIIPLINAPNYAPKFQGRVTITADMFSNIVSLQLTSLRTDDTAVYYCARRKMTTAIDYWGQGTLVTVSS
VL: QPVLTQPPSASASLGASVTLTCTLSSAYSNYKVDWYQQRPGKGPRFVMRVGTGGIVGSKGDGIPDRFSVLGSGLNRYLTIKNIQEEDESDYHCGADHGSGSNFVSPYVFGGGTKLTVL
B13: TCN-526 (5084_C17) (antibody, V domains shown)
VH: EVLMVESGGGLVQPGGSVRLSCVASGFSFSSHWMTWVRQAPGKGLEWVANIEDDGGDKYYVDSVKGRFIISRDNAKNSVYLQMNSLRAEDTAVYFCARGSGSSDRSDYDPHYYYYLDVWGKGATVTVSS
VL: DIQLTQSPSSLSASVGDRVTITCRASQSISRYLNWYQQKPGKAPKLLLFAASTLLDGVPSRFSGSGSGTDFTLTISSLQPEDFATYYCQRNHSPSWTFGQGTRVEIK
B14: TCN-530 (5248_H10a) (antibody, V domains shown)
VH: QVQLVQSGAEVRKPGSSVKVSCKASGGPFMSYAIGWVRQAPGQGLEWMGGINPVFGRPHYAQKFQGRVTIATDDSTKTSYMELSSLTSEDTGMYYCASRYSRSSPGTFESWGQGTLVTVSS
VL: EIVMTQFPATLSVSPGERVTLSCRASQSVSNNLAWYQQKPGQPPRLLIYDASTRATGVPAKFSGTGSGTEFTLSISSLQSEDFAVYYCQQYHNWPPSYSFGLGTKLEIK
B15: TCN-539 (5056_A08) (antibody, V domains shown)
VH: QVQLVESGGGVVQPGRSLRLSCAASEITFITYAMHWVRQAPGKGLEWVALISDDGSNKFYADSVKGRFTISRDNSKNTLYLQMNSLRAEDTAAYYCAREGVYFDSGTYRGYFDYWGQETLVTVSS
VL: EIVLTQSPATLSLSPGERATLSCRASQSVSSYLAWYQQKPGQAPRLLIYDASNRATGIPARFSGSGSGTDFTLTISSLEPEDFAVYYCQQRSHWPPITFGQGTRLEIK
B16: TCN-535 (5246_P19) (antibody, V domains shown)
VH: QVQLVQSGSEVKKPGTSVKVSCTASGSVFTNYGISWVRQAPGQGLEWMGGIIPLFGAAKYAQKFQGRVTITADESTKTVYMELSRLTSKDTAIYFCAKAPRVYEYYFDQWGQGTPVTVSS
VL: EIVLTQSPGTLSLSPGERATLSCRASQSVSSSQLAWYQQKPGQAPRLIIYGASTRATGIPDRFSGSGSGTDFTLTIGRLEPEDFAVFFCQQYSTSPPTFGQGTKVDFK
B17: TCN-536 (5095_N01) (antibody, V domains shown)
VH: QVQLQQWGAGLLKPSETLSLTCAVYGGSFSVSGYYWSWIRQPPGRGLEWIGEISHGGSTNYNPSLKSRVTISVDTTKNQFSLRLSSVTAADTAVYYCARGTDPDTEVYCRVGNCAAFDYWGQGSLVTVSS
VL: EIILAQSPGTLSLSPGERATLSCRASQFVSTRSLAWYQQRPGQAPRLLIYGASSRATGIPDRFSGSGSGTDFTLTISRLEPEDFAVYYCQHYGYSPRYAFGQGSKVEIK
B18: TCN-531 (5091_H13) (antibody, V domains shown)
VH: EVQLVESGGDLVQPGRSLKLSCTGSGFTFGDYGVTWVRQAPGKGLEWVGFIRTRPWGGTADTAASVKGRFTISRDDSKSLAYLQMNSLKTEDTAVYYCCRDAPPNVEVASMTNWYFDLWGRGTLVTVSS
VL: DIQLTQSPSSLSASVGDRVTITCRASQGILNCLAWYQQKPGKVPNLLMYAASTLQSGVPSRFSGSGFGTDFTLTISSLQPEDVATYYCQTYGGVSTFGGGTKVEIR
B19: TCN-560 (5084_P10) (antibody, V domains shown)
VH: EVQLVESGGGLVQPGGSLRLSCAASGFIFRNYWMSWVRQAPGKGLEWVANIKQDGREKYYVDSLRGRVNISRDNAENSLYLHMNSLRVEDTAVYFCARARMVVVTGDGFDVWGHGTMVTVSS
VL: DIQMTQSPSSLSASVGDRVTITCRASQNIKRYFNWYQQKPGKAPKLLIYAASNLENGVPSRFSGSGSGTDFTLTISSLQPEDFATYYCQQSFSKSWTFGQGTNVDIK
B20: TCN-543 (5081_G23) (antibody, V domains shown)
VH: QVHLVQSGAEVRKPGDSVKVSCKTSGYTFSTYPVAWVRQVPGQGLEWMGWISTYNGNTNFAQNFQGRVTLTTDTTTNTAYMEVRSLKFDDTAVYYCARVEGSYRDFWNNQNRFDPWGQGTLVTVSS
VL: SYVLTQPPSVSVAPGQTARISCGGSNIGGKSVHWYQQKPGQAPVLVVYDDSGRPSGIPERFSGSNSGDTATLTISRVEAGDEADYFCQVWDNFGGVFGTGTKVTVL

The test addresses hemagglutinin (HA) of influenza A/Japan/305/57 (H2N2) on whole virions (Influenza A virus A/Japan/305/1957(H2N2), UniProt P03451 16-562). The test can be described thus: ELISA; BCC supernatant on coated inactivated whole virions. Background: ELISA stands for enzyme-linked immunosorbent assay.
On to B1, for which the “ELISA virus binding (OD450)” value stood at 0.06 OD450.

For the molecule B2, the “ELISA virus binding (OD450)” value stood at 0.07 OD450.

Take B3: the “ELISA virus binding (OD450)” value stood at 0.08 OD450.

Turning to B4, the “ELISA virus binding (OD450)” value stood at 0.6 OD450.

As to B5, the “ELISA virus binding (OD450)” value stood at 1.23 OD450.

Regarding B6, the “ELISA virus binding (OD450)” value was found to be 3.62 OD450.

As to B7, the “ELISA virus binding (OD450)” value turned out to be 1.48 OD450.

B8: the “ELISA virus binding (OD450)” value is 2.82 OD450.

Turning to B9, the “ELISA virus binding (OD450)” value was found to be 3.1 OD450.

On to B10, for which the “ELISA virus binding (OD450)” value came out at 2.56 OD450.

For the molecule B11, the “ELISA virus binding (OD450)” value came to 1.1 OD450.

In the case of B12, the “ELISA virus binding (OD450)” value stood at 1.1 OD450.

Consider B13, for which the “ELISA virus binding (OD450)” value was found to be 0.07 OD450.

Regarding B14, the “ELISA virus binding (OD450)” value was 1.73 OD450.

For B15, the “ELISA virus binding (OD450)” value turned out to be 0.06 OD450.

Take B16: the “ELISA virus binding (OD450)” value is 1.46 OD450.

With B17, the “ELISA virus binding (OD450)” value is 0.08 OD450.

On to B18, for which the “ELISA virus binding (OD450)” value turned out to be 0.67 OD450.

For B19, the “ELISA virus binding (OD450)” value was found to be 2.07 OD450.

For B20, the “ELISA virus binding (OD450)” value is 3.62 OD450.
